What was measured:
[1] = target: T1, EVNFAAEF (SEQ ID NO: 259)
T1 chain: EVNFAAEF

[2] = target: T2, EVNFEAEF (SEQ ID NO: 260)
T2 chain: EVNFEAEF

[3] = target: T3, P1′ peptide library component with P1′=Pro
T3 chain: EVNLPAEF

[4] = target: T4, EVNFEVEF (SEQ ID NO: 262)
T4 chain: EVNFEVEF

[5] = target: T5, EVNFAVEF (SEQ ID NO: 261)
T5 chain: EVNFAVEF

[6] = target: T6, P1′ peptide library component with P1′=Gly
T6 chain: EVNLGAEF

[7] = target: T7, EVNLAAEF (SEQ ID NO: 258)
T7 chain: EVNLAAEF

[8] = target: T8, EVNLDAEF, Swedish mutant APP 8-mer peptide (SEQ ID NO: 257)
T8 chain: EVNLDAEF

[9] = target: T9, P1′ peptide library component with P1′=Glu
T9 chain: EVNLEAEF

B1: β-secretase (protein)
chain: ETDEEPEEPGRRGSFVEMVDNLRGKSGQGYYVEMTVGSPPQTLNILVDTGSSNFAVGAAPHPFLHRYYQRQLSSTYRDLRKGVYVPYTQGKWEGELGTDLVSIPHGPNVTVRANIAAITESDKFFINGSNWEGILGLAYAEIARPDDSLEPFFDSLVKQTHVPNLFSLQLCGAGFPLNQSEVLASVGGSMIIGGIDHSLYTGSLWYTPIRREWYYEVIIVRVEINGQDLKMDCKEYNYDKSIVDSGTTNLRLPKKVFEAAVKSIKAASSTEKFPDGFWLGEQLVCWQAGTTPWNIFPVISLYLMGEVTNQSFRITILPQQYLRPVEDVATSQDDCYKFAISQSSTGTVMGAVIMEGFYVVFDRARKRIGFAVSACHVHDEFRTAAVEGPFVTLDMEDCGYNIPQTDESTLMTIAY
[1]
  Relative rates of hydrolysis (relative to SEQ ID NO: 257): 17
[2]
  Relative rates of hydrolysis (relative to SEQ ID NO: 257): 17
[3]
  depletion of full length peptide substrate (LC/MS): two peptides that were not cleaved by β-secretase (P1′=Gly and P1′=Pro)
[4]
  Relative rates of hydrolysis (relative to SEQ ID NO: 257): 60
[5]
  Relative rates of hydrolysis (relative to SEQ ID NO: 257): 30
[6]
  depletion of full length peptide substrate (LC/MS): two peptides that were not cleaved by β-secretase (P1′=Gly and P1′=Pro)
[7]
  Relative rates of hydrolysis (relative to SEQ ID NO: 257): 10
  depletion of full length peptide substrate (LC/MS): most rapidly hydrolyzed by β-secretase (P1′=Glu and P1′=Ala)
  formation of C-terminal cleavage products (LC/MS): more rapid and comparable rates of formation of the products represented by P1′=Ala and P1′=Glu
[8]
  Relative rates of hydrolysis (relative to SEQ ID NO: 257): 1
  depletion of full length peptide substrate (LC/MS): one intermediate sequence (P1′=Asp-the residue normally present in Swedish mutant APP)
  formation of C-terminal cleavage products (LC/MS): the P1′=Asp product shows formation consistent with this residue being less conducive to β-secretase hydrolysis than either Glu or Ala
[9]
  depletion of full length peptide substrate (LC/MS): most rapidly hydrolyzed by β-secretase (P1′=Glu and P1′=Ala)
  formation of C-terminal cleavage products (LC/MS): more rapid and comparable rates of formation of the products represented by P1′=Ala and P1′=Glu

— US20070184488
